Test results taken from the supplement of paper PMC10065799, “High-throughput profiling of sequence recognition by tyrosine kinases and SH2 domains using bacterial peptide display” (eLife, 2023).

Tests used:
Fes = Fes (UniProt P07332); test: phosphorylation enrichment, bacterial display (enrichment ratio); higher = better substrate or ligand; peptides without Tyr show the background
c-Abl (mouse) = test: as above
Jak2 = Jak2 (UniProt O60674); test: as above
Fer (mouse) = test: as above
MERTK = MERTK (UniProt Q12866); test: as above
Fyn = Fyn (UniProt P06241); test: as above
Chain of Fyn (P06241 whole entry, looked up): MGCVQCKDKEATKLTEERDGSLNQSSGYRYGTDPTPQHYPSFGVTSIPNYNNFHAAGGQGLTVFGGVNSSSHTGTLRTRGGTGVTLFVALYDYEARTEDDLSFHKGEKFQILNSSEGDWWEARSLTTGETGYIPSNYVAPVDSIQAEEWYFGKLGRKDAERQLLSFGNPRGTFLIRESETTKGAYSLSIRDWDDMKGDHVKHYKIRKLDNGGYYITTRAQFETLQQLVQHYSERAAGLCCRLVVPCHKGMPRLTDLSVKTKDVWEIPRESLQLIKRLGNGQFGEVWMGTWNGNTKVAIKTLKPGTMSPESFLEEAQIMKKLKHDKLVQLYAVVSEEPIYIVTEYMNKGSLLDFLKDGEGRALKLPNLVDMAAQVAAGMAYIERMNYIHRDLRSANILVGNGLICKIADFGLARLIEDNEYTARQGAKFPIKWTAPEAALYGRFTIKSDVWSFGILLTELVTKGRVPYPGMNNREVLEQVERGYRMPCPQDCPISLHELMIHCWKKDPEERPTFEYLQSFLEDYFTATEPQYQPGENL

FGFR1 = FGFR1 (UniProt P11362); test: as above
Chain of FGFR1 (P11362 whole entry, looked up): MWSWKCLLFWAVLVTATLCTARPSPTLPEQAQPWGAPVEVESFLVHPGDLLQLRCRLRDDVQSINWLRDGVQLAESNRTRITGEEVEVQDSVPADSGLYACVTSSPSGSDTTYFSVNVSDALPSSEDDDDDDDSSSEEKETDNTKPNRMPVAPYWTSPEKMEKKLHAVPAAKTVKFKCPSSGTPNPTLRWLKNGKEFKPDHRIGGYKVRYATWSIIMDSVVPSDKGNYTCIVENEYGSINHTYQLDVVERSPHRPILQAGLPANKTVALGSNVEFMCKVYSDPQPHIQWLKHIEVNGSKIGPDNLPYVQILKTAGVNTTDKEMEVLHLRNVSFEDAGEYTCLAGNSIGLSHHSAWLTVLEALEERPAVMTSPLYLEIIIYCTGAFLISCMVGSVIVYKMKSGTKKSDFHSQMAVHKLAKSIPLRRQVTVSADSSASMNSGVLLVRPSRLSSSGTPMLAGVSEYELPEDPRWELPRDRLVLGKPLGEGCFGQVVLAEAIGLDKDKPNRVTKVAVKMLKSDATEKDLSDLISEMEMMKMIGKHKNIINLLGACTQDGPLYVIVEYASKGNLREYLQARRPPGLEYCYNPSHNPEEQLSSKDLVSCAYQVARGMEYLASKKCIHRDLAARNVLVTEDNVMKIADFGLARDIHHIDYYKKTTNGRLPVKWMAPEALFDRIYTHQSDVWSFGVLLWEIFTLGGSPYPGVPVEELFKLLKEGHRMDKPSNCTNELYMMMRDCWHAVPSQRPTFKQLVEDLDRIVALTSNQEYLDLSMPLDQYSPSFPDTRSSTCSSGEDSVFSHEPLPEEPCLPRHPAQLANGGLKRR

AncSZ = test: as above
c-Src = test: as above
FGFR3 = FGFR3 (UniProt P22607); test: as above
Chain of FGFR3 (P22607 whole entry, looked up): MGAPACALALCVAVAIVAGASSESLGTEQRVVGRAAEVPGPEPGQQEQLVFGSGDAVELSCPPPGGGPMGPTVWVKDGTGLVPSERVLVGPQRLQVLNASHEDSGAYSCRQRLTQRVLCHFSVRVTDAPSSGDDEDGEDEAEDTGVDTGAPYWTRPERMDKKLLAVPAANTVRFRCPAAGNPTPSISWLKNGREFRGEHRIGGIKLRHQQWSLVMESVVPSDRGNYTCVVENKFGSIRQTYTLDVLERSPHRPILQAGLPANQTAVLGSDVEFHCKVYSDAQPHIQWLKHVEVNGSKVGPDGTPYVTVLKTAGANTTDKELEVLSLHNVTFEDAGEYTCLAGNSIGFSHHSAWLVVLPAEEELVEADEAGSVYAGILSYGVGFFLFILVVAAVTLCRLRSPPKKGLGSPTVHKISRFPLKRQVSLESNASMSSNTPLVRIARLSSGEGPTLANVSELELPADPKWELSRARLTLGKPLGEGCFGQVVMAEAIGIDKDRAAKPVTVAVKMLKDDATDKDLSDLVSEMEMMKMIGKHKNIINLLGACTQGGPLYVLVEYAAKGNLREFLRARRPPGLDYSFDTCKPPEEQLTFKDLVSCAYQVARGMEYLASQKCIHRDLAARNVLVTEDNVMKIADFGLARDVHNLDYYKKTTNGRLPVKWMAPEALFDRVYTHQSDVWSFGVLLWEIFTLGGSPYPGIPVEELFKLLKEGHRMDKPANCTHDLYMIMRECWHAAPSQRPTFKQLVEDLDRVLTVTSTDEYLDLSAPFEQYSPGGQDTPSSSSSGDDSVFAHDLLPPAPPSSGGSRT

EPHB2 = EPHB2 (UniProt P29323); test: as above
Hck = Hck (UniProt P08631); test: as above
Chain of Hck (P08631 whole entry, looked up): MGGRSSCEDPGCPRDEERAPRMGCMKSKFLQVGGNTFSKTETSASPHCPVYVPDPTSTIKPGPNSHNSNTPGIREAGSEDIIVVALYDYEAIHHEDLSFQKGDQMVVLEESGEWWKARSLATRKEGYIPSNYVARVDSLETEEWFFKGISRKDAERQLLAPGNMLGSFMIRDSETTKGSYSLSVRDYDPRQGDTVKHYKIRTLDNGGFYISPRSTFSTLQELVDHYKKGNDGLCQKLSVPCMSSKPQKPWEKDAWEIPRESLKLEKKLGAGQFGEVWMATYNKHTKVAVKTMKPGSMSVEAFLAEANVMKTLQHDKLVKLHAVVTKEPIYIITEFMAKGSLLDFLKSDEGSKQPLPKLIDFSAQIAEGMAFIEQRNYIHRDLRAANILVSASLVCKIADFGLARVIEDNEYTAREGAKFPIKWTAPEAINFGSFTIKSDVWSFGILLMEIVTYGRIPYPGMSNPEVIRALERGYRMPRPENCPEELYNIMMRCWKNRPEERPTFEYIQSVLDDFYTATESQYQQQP

EPHB1 = EPHB1 (UniProt P54762); test: as above
SHP2-C SH2 = test: SH2 binding enrichment of the phosphorylated peptide, bacterial display (enrichment ratio); higher = better substrate or ligand; peptides without Tyr show the background
c-Src SH2 = test: as above
Grb2 SH2 = Grb2 SH2 (UniProt P62993); test: as above
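For SH2 binding enrichment of the phosphorylated peptide, bacterial display in this document: peptide library displayed on the E. coli surface as eCPX fusions, selected cells deep-sequenced, score is each peptide's frequency after selection divided by its frequency in the input.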
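For phosphorylation enrichment, bacterial display in this document: 11-residue human phosphosite peptides and single-mutation variants displayed on the E. coli surface, counted by deep sequencing, each peptide's frequency after selection divided by its frequency in the unselected input library; frequency after pTyr selection over input frequency; kinase dosed for 20-30% of maximal phosphorylation in three min.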

Chain of Jak2 (O60674 whole entry, looked up): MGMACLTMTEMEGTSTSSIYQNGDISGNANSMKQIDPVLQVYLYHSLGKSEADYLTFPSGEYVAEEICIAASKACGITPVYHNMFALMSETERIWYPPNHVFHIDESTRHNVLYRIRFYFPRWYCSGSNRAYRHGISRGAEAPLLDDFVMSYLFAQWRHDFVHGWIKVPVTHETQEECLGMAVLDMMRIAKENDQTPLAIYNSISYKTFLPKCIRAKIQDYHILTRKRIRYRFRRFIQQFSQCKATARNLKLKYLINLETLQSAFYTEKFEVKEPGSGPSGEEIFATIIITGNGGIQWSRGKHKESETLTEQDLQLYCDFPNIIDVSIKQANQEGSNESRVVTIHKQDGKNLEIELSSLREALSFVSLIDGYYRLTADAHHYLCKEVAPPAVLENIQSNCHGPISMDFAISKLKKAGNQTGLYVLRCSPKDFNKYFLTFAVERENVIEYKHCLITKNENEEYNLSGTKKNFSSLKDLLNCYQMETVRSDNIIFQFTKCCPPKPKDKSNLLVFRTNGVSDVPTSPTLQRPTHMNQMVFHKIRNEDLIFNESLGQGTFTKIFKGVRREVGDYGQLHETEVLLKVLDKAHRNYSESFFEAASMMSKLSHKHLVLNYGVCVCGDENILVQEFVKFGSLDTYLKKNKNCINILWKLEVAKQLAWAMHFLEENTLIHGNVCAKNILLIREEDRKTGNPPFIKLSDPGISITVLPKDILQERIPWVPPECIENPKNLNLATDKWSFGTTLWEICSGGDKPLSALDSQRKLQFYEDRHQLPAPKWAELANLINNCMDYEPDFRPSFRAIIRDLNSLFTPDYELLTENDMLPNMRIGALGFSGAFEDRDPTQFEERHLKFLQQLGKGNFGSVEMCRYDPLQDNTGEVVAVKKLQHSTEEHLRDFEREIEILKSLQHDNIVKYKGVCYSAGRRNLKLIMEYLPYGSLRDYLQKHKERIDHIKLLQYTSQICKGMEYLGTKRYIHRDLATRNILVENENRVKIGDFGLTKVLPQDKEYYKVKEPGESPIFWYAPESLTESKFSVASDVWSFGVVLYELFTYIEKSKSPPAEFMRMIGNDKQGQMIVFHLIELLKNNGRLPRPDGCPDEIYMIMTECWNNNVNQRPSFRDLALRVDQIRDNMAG
Chain of Fes (P07332 whole entry, looked up): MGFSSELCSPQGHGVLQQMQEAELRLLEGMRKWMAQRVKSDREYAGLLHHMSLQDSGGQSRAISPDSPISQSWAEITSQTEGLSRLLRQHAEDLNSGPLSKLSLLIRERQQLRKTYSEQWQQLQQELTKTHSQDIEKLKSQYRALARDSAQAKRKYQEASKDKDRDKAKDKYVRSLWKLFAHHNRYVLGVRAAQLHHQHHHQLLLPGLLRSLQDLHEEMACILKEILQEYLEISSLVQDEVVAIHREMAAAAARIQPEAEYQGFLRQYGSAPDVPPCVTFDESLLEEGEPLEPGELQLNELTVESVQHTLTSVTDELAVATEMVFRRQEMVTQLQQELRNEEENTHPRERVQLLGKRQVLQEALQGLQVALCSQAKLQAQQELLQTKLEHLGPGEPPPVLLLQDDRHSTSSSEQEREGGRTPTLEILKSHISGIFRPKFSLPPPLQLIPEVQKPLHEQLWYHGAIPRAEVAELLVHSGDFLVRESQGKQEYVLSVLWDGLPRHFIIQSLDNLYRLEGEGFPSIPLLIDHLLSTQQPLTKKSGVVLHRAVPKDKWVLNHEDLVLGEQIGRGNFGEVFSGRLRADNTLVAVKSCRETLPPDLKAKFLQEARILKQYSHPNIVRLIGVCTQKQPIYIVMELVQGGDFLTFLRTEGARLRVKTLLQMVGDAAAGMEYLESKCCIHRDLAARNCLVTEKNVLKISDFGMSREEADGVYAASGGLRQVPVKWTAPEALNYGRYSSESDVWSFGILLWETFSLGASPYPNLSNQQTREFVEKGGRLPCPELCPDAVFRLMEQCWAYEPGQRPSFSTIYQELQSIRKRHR

| Sequence | SH2 binding enrichment (SHP2-C SH2) | SH2 binding enrichment (c-Src SH2) | SH2 binding enrichment (Grb2 SH2) | phosphorylation enrichment (Fes) | phosphorylation enrichment (c-Abl (mouse)) | phosphorylation enrichment (Jak2) | phosphorylation enrichment (Fer (mouse)) | phosphorylation enrichment (MERTK) | phosphorylation enrichment (Fyn) | phosphorylation enrichment (FGFR1) | phosphorylation enrichment (AncSZ) | phosphorylation enrichment (c-Src) | phosphorylation enrichment (FGFR3) | phosphorylation enrichment (EPHB2) | phosphorylation enrichment (Hck) | phosphorylation enrichment (EPHB1) |
| --- | --- | --- | --- | --- | --- | --- | --- | --- | --- | --- | --- | --- | --- | --- | --- | --- |
| IGEGTYRTVFK [CDK5_Y15_G16R] | 0.614 | 0.47 | 0.674 | 0.738 | 0.638 | 0.781 | 0.317 | 0.384 | 0.459 | 0.353 | 0.542 | 0.558 | 0.533 | 0.432 | 0.532 | 0.362 |
| TMKSRYMELYD [BBS2_Y644] | 1.2 | 4.93 | 0.809 | 0.868 | 0.624 | 0.808 | 0.426 | 0.456 | 0.475 | 0.489 | 0.812 | 0.73 | 0.556 | 0.608 | 0.694 | 0.535 |
| VASSLYDIFAR [GLB1_Y294_L297F] | 0.884 | 0.714 | 1.02 | 0.948 | 1.25 | 0.927 | 3.12 | 11.4 | 6.66 | 0.637 | 1.09 | 6.38 | 0.714 | 1.81 | 8.55 | 1.46 |
| PEADKYHLTFA [FGG_Y300_R301H_YF] | 0.254 | 0.301 | 0.637 | 1.8 | 2.22 | 1.98 | 0.802 | 0.75 | 0.73 | 0.725 | 1.88 | 1.03 | 1.5 | 0.788 | 0.939 | 2.12 |
| FVKEPYIQSRF [HIPK4_Y175_YF] | 0.785 | 0.509 | 0.942 | 0.702 | 0.447 | 0.607 | 0.43 | 0.39 | 0.374 | 0.375 | 0.569 | 0.418 | 0.479 | 0.452 | 0.402 | 0.402 |
| EVASVYESFQP [MAVS_Y92_Q93E_YF] | 0.475 | 0.561 | 0.783 | 1.31 | 1.56 | 1.65 | 14 | 3.2 | 11.2 | 0.668 | 1.91 | 8.96 | 0.852 | 1.01 | 8.64 | 1.1 |
| MIAIRYSHSRR [ACOXL_Y260_T255M] | 0.652 | 0.56 | 0.959 | 0.487 | 0.473 | 0.434 | 0.324 | 0.353 | 0.444 | 0.377 | 0.875 | 0.426 | 0.518 | 0.465 | 0.43 | 0.539 |
| TKDTFYKQPVF [GBA_Y451_M455V] | 0.66 | 0.417 | 0.905 | 0.766 | 0.764 | 0.695 | 0.308 | 0.417 | 0.386 | 0.406 | 0.634 | 0.421 | 0.473 | 0.523 | 0.312 | 0.409 |
| SIKDKYLTALF [KCNH2_Y611_V612L_YF] | 0.778 | 0.674 | 1.07 | 0.784 | 0.468 | 0.665 | 0.484 | 0.408 | 0.448 | 0.481 | 0.724 | 0.394 | 0.572 | 0.449 | 0.414 | 0.435 |
| SSSGAYGGGFG [KRT19_Y61_YF] | 0.517 | 0.427 | 0.724 | 0.689 | 0.539 | 0.595 | 0.396 | 0.396 | 0.434 | 0.412 | 0.553 | 0.452 | 0.464 | 0.378 | 0.415 | 0.383 |
| ALHRPYGCDVE [ABL2_Y80] | 0.72 | 0.582 | 1.01 | 0.782 | 0.571 | 0.541 | 0.538 | 0.357 | 0.447 | 0.412 | 0.871 | 0.324 | 0.531 | 0.456 | 0.379 | 0.59 |

Now from value to sequence, other results behind:

| SH2 binding enrichment (SHP2-C SH2) | SH2 binding enrichment (c-Src SH2) | SH2 binding enrichment (Grb2 SH2) | Sequence | phosphorylation enrichment (Fes) | phosphorylation enrichment (c-Abl (mouse)) | phosphorylation enrichment (Jak2) | phosphorylation enrichment (Fer (mouse)) | phosphorylation enrichment (MERTK) | phosphorylation enrichment (Fyn) | phosphorylation enrichment (FGFR1) | phosphorylation enrichment (AncSZ) | phosphorylation enrichment (c-Src) | phosphorylation enrichment (FGFR3) | phosphorylation enrichment (EPHB2) | phosphorylation enrichment (Hck) | phosphorylation enrichment (EPHB1) |
| --- | --- | --- | --- | --- | --- | --- | --- | --- | --- | --- | --- | --- | --- | --- | --- | --- |
| 0.624 | 0.478 | 0.484 | TEVIWYKGDEE | 1.55 | 0.691 | 1.45 | 0.393 | 0.51 | 0.445 | 0.445 | 1.72 | 0.601 | 0.704 | 0.606 | 0.335 | 0.516 |
| 1.11 | 0.655 | 1.03 | ISPPVYLTNEW [NRK_Y885] | 1.09 | 0.92 | 1.1 | 0.698 | 0.542 | 0.825 | 0.704 | 1.13 | 0.766 | 0.718 | 0.724 | 0.732 | 0.694 |
| 0.688 | 0.586 | 0.917 | FDSPFYQDSLP [TSC1_Y508_R509Q] | 1.09 | 0.737 | 0.805 | 2.88 | 0.431 | 0.482 | 0.357 | 0.848 | 0.473 | 0.599 | 0.489 | 0.521 | 0.503 |
| 0.654 | 0.427 | 0.824 | KTSGNYLAVTG [WDR19_Y28] | 0.57 | 0.445 | 0.449 | 0.404 | 0.757 | 0.536 | 0.5 | 0.573 | 0.42 | 0.457 | 0.517 | 0.454 | 0.974 |
| 0.678 | 0.519 | 0.795 | CEHRGSLYLAI [TEK_Y897_Y897S] | 1.24 | 0.933 | 1.16 | 0.573 | 1.24 | 0.552 | 0.609 | 1.13 | 0.891 | 0.847 | 0.585 | 0.606 | 0.714 |
| 0.819 | 0.587 | 0.806 | SEELHYFVQNH [UQCRC2_Y207] | 1.16 | 1.07 | 1.08 | 0.562 | 0.841 | 0.523 | 1.12 | 1.45 | 0.685 | 1.39 | 0.661 | 0.524 | 0.647 |
